Measurements published in article PMC9482650, “Quantitative fragmentomics allow affinity mapping of interactomes” (Nature Communications, 2022).

T1: HTRA3, P83110
T1 sequence (P83110 354-453, limits assumed, looked up): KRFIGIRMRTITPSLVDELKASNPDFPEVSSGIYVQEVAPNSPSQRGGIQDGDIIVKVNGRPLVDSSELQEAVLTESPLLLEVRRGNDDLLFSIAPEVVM

T2: RHPN1, Q8TCX5
T2 sequence (Q8TCX5 508-602, limits assumed, looked up): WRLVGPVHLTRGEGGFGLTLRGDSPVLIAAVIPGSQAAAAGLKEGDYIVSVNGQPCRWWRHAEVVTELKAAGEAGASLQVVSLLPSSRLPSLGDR

T3: TJP3_3, O95049
T3 sequence (O95049 375-456, limits assumed, looked up): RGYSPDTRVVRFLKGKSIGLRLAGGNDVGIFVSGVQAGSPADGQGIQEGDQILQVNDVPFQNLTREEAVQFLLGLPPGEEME

T4: LIN7C, Q9NUP9
T4 sequence (Q9NUP9 88-185, limits assumed, looked up): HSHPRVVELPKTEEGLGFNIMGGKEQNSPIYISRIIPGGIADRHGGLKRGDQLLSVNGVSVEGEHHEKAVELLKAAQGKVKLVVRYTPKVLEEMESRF

T5: SNTG2, Q9NY99
T5 sequence (Q9NY99 68-166, limits assumed, looked up): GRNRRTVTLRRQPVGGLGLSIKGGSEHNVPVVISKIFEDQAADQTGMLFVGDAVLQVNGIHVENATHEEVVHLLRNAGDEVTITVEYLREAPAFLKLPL

T6: PDZD7_3, Q9H5P4
T6 sequence (Q9H5P4 857-944, limits assumed, looked up): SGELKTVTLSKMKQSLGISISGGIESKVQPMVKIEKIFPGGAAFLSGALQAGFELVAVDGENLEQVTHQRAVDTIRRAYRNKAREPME

T7: TX1BP3, O14907
T7 sequence (O14907 10-122, limits assumed, looked up): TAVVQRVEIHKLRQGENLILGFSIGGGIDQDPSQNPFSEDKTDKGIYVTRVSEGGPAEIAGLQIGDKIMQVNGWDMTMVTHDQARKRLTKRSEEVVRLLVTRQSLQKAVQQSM

T8: FRMPD1, Q5SYB0
T8 sequence (Q5SYB0 52-145, limits assumed, looked up): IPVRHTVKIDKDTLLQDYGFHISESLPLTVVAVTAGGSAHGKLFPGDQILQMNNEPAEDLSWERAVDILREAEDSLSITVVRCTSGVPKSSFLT

T9: APBA3_1, O96018
T9 sequence (O96018 389-490, limits assumed, looked up): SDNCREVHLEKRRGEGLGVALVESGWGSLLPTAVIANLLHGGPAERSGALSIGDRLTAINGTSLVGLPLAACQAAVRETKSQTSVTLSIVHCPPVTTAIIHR

T10: SNTA1, Q13424
T10 sequence (Q13424 82-180, limits assumed, looked up): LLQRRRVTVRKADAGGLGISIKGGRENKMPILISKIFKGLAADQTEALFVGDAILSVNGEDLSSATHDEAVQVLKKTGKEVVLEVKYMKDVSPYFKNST

T11: DVL3, Q92997
T11 sequence (Q92997 244-331, limits assumed, looked up): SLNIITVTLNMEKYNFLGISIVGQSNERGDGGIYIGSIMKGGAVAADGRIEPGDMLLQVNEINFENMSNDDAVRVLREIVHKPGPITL

T12: PTPN13_1, Q12923
T12 sequence (Q12923 1088-1188, limits assumed, looked up): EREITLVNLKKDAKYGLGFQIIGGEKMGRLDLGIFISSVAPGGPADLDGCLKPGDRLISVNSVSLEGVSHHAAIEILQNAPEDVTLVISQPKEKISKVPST


Tests used:
Experiment in all cases: holdup assay
Set-up in all cases: key: below the threshold = too weak to quantify, mostly under pKd 3.1 to 4
Settings in all cases: plain residues with an end cap or a label only (N-terminal biotin on a linker: ado-ado)
HTRA3, P83110 = molecular target: T1, HTRA3, P83110
RHPN1, Q8TCX5 = molecular target: T2, RHPN1, Q8TCX5
TJP3_3, O95049 = molecular target: T3, TJP3_3, O95049
Inadl_4, Q8NI35 = molecular target: Inadl_4, Q8NI35
Chain of Inadl_4, Q8NI35 (Q8NI35 547-651): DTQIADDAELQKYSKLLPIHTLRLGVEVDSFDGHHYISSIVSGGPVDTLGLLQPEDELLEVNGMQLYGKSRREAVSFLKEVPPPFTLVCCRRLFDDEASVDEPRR

PDZRN4_1, Q6ZMN7 = molecular target: PDZRN4_1, Q6ZMN7
Chain of PDZRN4_1, Q6ZMN7 (Q6ZMN7 213-318): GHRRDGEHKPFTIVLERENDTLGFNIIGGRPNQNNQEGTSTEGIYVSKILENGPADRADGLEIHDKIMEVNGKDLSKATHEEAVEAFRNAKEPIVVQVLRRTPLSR

GRIP2_3, Q9C0E4 = molecular target: GRIP2_3, Q9C0E4
Chain of GRIP2_3, Q9C0E4 (Q9C0E4 238-339): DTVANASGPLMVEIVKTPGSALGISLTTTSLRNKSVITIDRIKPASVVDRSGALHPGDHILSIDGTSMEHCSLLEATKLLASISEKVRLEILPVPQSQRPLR

LIN7C, Q9NUP9 = molecular target: T4, LIN7C, Q9NUP9
SNTG2, Q9NY99 = molecular target: T5, SNTG2, Q9NY99
MAGI2_4, Q86UL8 = molecular target: MAGI2_4, Q86UL8
Chain of MAGI2_4, Q86UL8 (Q86UL8 772-865): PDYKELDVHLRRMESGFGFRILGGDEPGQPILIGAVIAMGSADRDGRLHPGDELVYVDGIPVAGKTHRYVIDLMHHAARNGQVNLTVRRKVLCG

PDZD7_3, Q9H5P4 = molecular target: T6, PDZD7_3, Q9H5P4
GORASP1, Q9BQQ3 = molecular target: GORASP1, Q9BQQ3
Chain of GORASP1, Q9BQQ3 (Q9BQQ3 1-208): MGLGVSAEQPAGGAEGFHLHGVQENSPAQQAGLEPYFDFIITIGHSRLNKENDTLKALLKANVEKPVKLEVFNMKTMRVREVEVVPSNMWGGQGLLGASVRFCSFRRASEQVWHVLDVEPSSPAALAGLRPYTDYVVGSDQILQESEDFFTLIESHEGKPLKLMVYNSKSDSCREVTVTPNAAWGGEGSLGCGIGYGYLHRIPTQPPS

FRMPD3, Q5JV73 = molecular target: FRMPD3, Q5JV73
Chain of FRMPD3, Q5JV73 (Q5JV73 12-100): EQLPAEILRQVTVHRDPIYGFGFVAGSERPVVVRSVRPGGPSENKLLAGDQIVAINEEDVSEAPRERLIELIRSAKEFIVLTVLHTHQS

FRMPD2_2, Q68DX3 = molecular target: FRMPD2_2, Q68DX3
Chain of FRMPD2_2, Q68DX3 (Q68DX3 944-1038): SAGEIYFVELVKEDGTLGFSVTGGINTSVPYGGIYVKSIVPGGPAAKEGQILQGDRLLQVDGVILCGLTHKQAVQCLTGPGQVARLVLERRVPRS

TX1BP3, O14907 = molecular target: T7, TX1BP3, O14907
FRMPD1, Q5SYB0 = molecular target: T8, FRMPD1, Q5SYB0
APBA3_1, O96018 = molecular target: T9, APBA3_1, O96018
SNTA1, Q13424 = molecular target: T10, SNTA1, Q13424
DVL3, Q92997 = molecular target: T11, DVL3, Q92997
DLG2_3, Q15700 = molecular target: DLG2_3, Q15700
FRMPD2_1, Q68DX3 = molecular target: FRMPD2_1, Q68DX3
Chain of FRMPD2_1, Q68DX3 (Q68DX3 770-861): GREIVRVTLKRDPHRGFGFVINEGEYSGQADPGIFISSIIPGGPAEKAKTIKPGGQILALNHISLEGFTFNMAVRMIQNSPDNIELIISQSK

PTPN3, P26045 = molecular target: PTPN3, P26045
Chain of PTPN3, P26045 (P26045 505-587): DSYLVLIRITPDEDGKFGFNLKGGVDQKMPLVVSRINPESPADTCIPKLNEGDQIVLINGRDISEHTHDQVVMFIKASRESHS

ARHGEF12, Q9NZN5-2 = molecular target: ARHGEF12, Q9NZN5-2
Chain of ARHGEF12, Q9NZN5-2 (Q9NZN5 other isoform, or with tags, fused parts or gaps): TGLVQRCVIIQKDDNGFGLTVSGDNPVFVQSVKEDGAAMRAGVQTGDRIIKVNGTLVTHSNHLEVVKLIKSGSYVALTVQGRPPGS

MAST1, Q9Y2H9 = molecular target: MAST1, Q9Y2H9
Chain of MAST1, Q9Y2H9 (Q9Y2H9 962-1065): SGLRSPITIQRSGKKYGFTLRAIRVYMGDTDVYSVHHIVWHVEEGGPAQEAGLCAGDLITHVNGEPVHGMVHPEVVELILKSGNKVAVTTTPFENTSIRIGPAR

Inadl_5, Q8NI35 = molecular target: Inadl_5, Q8NI35
Chain of Inadl_5, Q8NI35 (Q8NI35 673-780): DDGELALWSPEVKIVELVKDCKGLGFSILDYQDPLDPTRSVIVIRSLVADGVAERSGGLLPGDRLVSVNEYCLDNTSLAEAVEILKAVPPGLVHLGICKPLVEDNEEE

PTPN13_1, Q12923 = molecular target: T12, PTPN13_1, Q12923

Row | pKd (HTRA3, P83110) | pKd (RHPN1, Q8TCX5) | pKd (TJP3_3, O95049) | pKd (Inadl_4, Q8NI35) | pKd (PDZRN4_1, Q6ZMN7) | pKd (GRIP2_3, Q9C0E4) | pKd (LIN7C, Q9NUP9) | pKd (SNTG2, Q9NY99) | pKd (MAGI2_4, Q86UL8) | pKd (PDZD7_3, Q9H5P4) | pKd (GORASP1, Q9BQQ3) | pKd (FRMPD3, Q5JV73) | pKd (FRMPD2_2, Q68DX3) | pKd (TX1BP3, O14907) | pKd (FRMPD1, Q5SYB0) | pKd (APBA3_1, O96018) | pKd (SNTA1, Q13424) | pKd (DVL3, Q92997) | pKd (DLG2_3, Q15700) | pKd (FRMPD2_1, Q68DX3) | Binder | also measured
1 | below the threshold | 3.49 | below the threshold | below the threshold | 4.23 | below the threshold | below the threshold | 3.59 | 4.32 | 4.28 | below the threshold | below the threshold | below the threshold | below the threshold | below the threshold | below the threshold | 3.8 | below the threshold | 3.9 | below the threshold | GSSSKEGTSV [RRBP1, Q9P2E9] | pKd (PTPN3, P26045): 5.01; pKd (ARHGEF12, Q9NZN5-2): 3.91; pKd (MAST1, Q9Y2H9): 4.32; pKd (Inadl_5, Q8NI35): below the threshold; pKd (PTPN13_1, Q12923): below the threshold
2 | below the threshold | below the threshold | below the threshold | below the threshold | below the threshold | below the threshold | 3.96 | below the threshold | below the threshold | below the threshold | below the threshold | below the threshold | below the threshold | below the threshold | below the threshold | below the threshold | below the threshold | below the threshold | below the threshold | below the threshold | ADRDHASDQL [CTBP1, Q13363] | pKd (PTPN3, P26045): below the threshold; pKd (ARHGEF12, Q9NZN5-2): below the threshold; pKd (MAST1, Q9Y2H9): below the threshold; pKd (Inadl_5, Q8NI35): below the threshold; pKd (PTPN13_1, Q12923): below the threshold
